The record followed here is patent US6884600 (MEDICAL RESEARCH COUNCIL LONDON, dated 2005).

The target of test [1] is T1, myosin from chicken gizzard, dephosphorylated form (chicken, UniProt P10587 2-1979; P02612 2-172; P02607 2-151).
T1 construct: mature; Native protein pelleted by centrifugation; 1 µM in terms of heavy chains; also called myosin dimer
Nature of the test: co-sedimentation with myosin, immunoblot. Here is the method:
(§1) (A); PP1_M, $M110$-(M1-S477) and GST-$M110$-(M377-K976), each at 30 nM were incubated for 15 min at 0° C. with 1 μM myosin and centrifuged. The supernatants (S), resuspended pellets (P) and the suspension before centrifugation (T, total) were electrophoresed on 12% SDS/polyacrylamide gels, transferred to nitrocellulose and immunoblotted with antibodies raised against the PP1_M holoenzyme. No protein was pelleted in the absence of myosin (not shown). The positions of the marker proteins myosin heavy chain (200 kDa), glycogen phosphorylase (97 kDa), bovine serum albumin (66 kDa), ovalbumin (43 kDa), carbonic anhydrase (29 kDa) and soybean trypsin inhibitor (20 kDa) are indicated. […] A small amount of $M110$-(R714-I1004) pelleted in the absence of myosin. […] No other protein was pelleted in the absence of myosin.
Myosin binding assays. Myosin (0.5 mg/ml, 1 µM in terms of myosin heavy chains) in 10 mM Hepes pH 7.5, 50 mM KCl, 5 mM MgCl2, 0.1% (by vol) 2-mercaptoethanol, was mixed with PP1_M, M$21$ subunit, or fragments of the M$110$ and M$21$ subunits, at the concentrations indicated in figure legends. After incubation for 15 min at 0° C., the solutions were centrifuged for 2 min at 13,000×g, the supernatants removed, and the pellets washed twice in 10 mM Hepes pH 7.5, 50 mM KCl, 5 mM MgCl2, 0.1% (by vol) 2-mercaptoethanol before resuspension in 50 mM Tris-HCl pH 7.5, 0.1 mM EGTA, 0.03% (by mass) Brij 35, 0.6 M NaCl, 0.1% (by vol) 2-mercaptoethanol. Aliquots of the supernatant, the resuspended pellet and the suspension before centrifugation were either assayed for myosin P-light chain phosphatase activity or denatured in SDS and analysed by SDS/polyacrylamide gel electrophoresis.
(In general: In western blotting, separated proteins are transferred to a membrane and probed.)

Test [2] addresses PP1GL, glycogen-associated form of PP1 in rat hepatic glycogen-protein particles (rat). Nature of the test: cell-based or functional assay.
Test [3] deals with T2, β isoform of PP1c released from rabbit skeletal muscle PP1G (rabbit, UniProt P62143 2-327). Description: cell-based or functional assay.
Test [4] deals with T2, β isoform of PP1c released from rabbit …. Nature of the test: phosphatase assays and changed crystal form of PP1c.
Test [5] addresses T1, myosin from chicken gizzard, …. Nature of the test: co-sedimentation, 30 nM with 1 µM myosin, immunoblot. Here is the method:
as §1
(§2) Myosin binding assays. Myosin (0.5 mg/ml, 1 µM in terms of myosin heavy chains) in 10 mM Hepes pH 7.5, 50 mM KCl, 5 mM MgCl2, 0.1% (by vol) 2-mercaptoethanol, was mixed with PP1_M, M$21$ subunit, or fragments of the M$110$ and M$21$ subunits, at the concentrations indicated in figure legends. […] Aliquots of the supernatant, the resuspended pellet and the suspension before centrifugation were either assayed for myosin P-light chain phosphatase activity or denatured in SDS and analysed by SDS/polyacrylamide gel electrophoresis.

For test [6] the target is unchanged. Nature of the test: co-sedimentation with myosin.
The target of test [7] is PP1M, myosin-associated form of PP1 from chicken gizzard (chicken, UniProt P62207 2-327). Description: cell-based or functional assay.
Test [8] addresses T1, myosin from chicken gizzard, …. Description: summary of the co-sedimentation experiments. The method, then:
as §1, §2

Where only a bound is given, the exact number is not on record here.

T1 sequence (P10587 2-1979, chain 1 of 3): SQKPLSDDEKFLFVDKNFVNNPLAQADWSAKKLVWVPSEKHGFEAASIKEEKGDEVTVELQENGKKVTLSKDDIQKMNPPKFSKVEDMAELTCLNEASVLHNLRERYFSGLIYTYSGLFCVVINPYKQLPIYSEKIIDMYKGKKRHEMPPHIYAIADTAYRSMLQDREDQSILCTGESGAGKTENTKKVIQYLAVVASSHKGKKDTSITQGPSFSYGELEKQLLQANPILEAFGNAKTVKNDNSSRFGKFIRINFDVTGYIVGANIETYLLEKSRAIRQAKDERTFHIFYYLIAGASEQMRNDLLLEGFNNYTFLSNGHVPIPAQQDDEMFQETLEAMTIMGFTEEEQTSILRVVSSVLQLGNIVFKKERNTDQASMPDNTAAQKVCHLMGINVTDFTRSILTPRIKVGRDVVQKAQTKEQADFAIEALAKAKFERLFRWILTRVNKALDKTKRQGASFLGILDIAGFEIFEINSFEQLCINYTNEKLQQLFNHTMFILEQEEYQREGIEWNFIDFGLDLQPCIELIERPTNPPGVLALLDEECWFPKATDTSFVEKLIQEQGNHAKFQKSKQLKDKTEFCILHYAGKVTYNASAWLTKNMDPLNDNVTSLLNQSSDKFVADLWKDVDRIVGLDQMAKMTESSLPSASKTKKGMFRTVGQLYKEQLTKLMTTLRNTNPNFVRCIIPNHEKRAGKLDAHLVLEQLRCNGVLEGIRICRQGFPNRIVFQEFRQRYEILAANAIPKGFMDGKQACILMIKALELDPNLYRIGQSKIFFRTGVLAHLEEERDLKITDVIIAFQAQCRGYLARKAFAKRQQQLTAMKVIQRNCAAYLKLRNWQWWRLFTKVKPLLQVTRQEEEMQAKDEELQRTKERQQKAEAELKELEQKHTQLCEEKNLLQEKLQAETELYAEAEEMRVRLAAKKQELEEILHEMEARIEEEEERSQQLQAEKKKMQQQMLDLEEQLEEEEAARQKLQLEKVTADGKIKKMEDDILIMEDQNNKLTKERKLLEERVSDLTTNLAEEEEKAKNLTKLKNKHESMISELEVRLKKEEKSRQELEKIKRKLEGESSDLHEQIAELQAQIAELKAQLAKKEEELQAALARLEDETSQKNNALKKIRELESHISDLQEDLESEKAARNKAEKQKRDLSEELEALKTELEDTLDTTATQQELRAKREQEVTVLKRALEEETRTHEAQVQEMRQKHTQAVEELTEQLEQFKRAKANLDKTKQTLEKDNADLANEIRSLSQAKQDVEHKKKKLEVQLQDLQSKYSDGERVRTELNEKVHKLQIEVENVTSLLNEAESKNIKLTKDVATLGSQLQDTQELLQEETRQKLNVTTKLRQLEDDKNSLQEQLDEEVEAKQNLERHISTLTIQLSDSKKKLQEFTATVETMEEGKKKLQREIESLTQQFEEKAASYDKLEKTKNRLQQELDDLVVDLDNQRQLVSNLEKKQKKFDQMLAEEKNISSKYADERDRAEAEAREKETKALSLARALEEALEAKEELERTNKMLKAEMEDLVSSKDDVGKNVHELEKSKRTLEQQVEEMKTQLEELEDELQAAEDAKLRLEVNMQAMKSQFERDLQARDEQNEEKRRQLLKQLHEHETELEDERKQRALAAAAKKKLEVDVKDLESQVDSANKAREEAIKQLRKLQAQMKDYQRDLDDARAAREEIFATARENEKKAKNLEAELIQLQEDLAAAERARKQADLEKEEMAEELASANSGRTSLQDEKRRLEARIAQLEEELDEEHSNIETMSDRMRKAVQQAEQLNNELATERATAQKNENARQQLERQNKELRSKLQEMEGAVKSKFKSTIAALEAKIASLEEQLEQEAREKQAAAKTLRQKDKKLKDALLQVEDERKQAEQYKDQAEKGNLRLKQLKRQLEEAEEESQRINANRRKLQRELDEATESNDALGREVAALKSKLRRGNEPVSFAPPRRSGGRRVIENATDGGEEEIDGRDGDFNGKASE
T1 sequence (P02612 2-172, chain 2 of 3): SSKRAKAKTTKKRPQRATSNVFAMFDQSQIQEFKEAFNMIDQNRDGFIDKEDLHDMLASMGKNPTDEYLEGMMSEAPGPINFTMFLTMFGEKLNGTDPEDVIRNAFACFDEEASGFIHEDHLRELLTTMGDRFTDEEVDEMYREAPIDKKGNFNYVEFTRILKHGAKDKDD
T1 sequence (P02607 2-151, chain 3 of 3): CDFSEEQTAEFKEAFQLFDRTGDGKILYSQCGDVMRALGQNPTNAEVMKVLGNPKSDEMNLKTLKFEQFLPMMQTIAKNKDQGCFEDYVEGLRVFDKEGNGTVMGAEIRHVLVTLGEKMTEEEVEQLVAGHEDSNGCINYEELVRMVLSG
T2 sequence (P62143 2-327): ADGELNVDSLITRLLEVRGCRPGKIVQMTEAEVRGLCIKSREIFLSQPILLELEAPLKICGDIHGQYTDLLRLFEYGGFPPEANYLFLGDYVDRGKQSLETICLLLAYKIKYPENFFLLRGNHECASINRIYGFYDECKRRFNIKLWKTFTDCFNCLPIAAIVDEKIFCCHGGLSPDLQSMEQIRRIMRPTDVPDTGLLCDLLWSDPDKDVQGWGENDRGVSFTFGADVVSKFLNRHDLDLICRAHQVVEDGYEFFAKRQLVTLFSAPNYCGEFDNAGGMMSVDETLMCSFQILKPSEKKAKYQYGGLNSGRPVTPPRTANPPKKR
Sequence of PP1M, myosin-associated form of PP1 from chicken gizzard (P62207 2-327): as the sequence (P62143 2-327) above

B1: GST-M21 (other, not shown: a dimerising Fc or GST; small tags and cut ends)
chain: MSSLFTRSKEYTRSRKSQSDSPPSSPSPIAKTLRHERLSRLEAATTPATSDSYSDRASSRSSAYSRRENRLAALSSRAEEESNRDYKKLYESALSENQKLKSKLQEAQLELADIKSKLEKAAQQKHEKTSDRSSMLEMEKREKRALERKLSEMEEEMKILTELKSDNQRLKDENGALIRVISKLSK
notes: also called undegraded GST-M21 (47 kDa)
Regarding B1, in test [1], the binding result is “binds”.

B2: M110-(K933-I1004), C-terminal 72 residues of the chicken gizzard M110 subunit, released from MBP with Factor Xa (other)
chain: KLYEQILAENEKLKAQLHDTNMELTDLKLQLEKTTQRQERFADRSLLEMEKRVSGKSQYLLGGKKSSRKKDI
notes: also called 8.5 kDa M110-(K933-I1004) fragment
On to B2, for which, in test [1], the binding result was “no binding (tested: 100 nM with 1 µM myosin)”.

Consider MKMADAKQKRNEQLKRWIGSETDLEPPVVKRQKTKVKF [M110-(M1-F38) synthetic peptide], for which the “phosphorylase phosphatase activity of PP1GL at 10 µM peptide” value in test [2] worked out at 3.5 fold. Moreover, in test [3], the “concentration for half maximal activation relative to M110-(M1-E309)” value was no less than 100 fold and the “maximal activation of the myosin light chain phosphatase activity of PP1c” value came out at 3 fold.

B3: M110-(M1-A150), released from GST with thrombin (other)
chain: GSPGMKMADAKQKRNEQLKRWIGSETDLEPPVVKRQKTKVKFDDGAVFLAACSSGDTDEVLKLLHRGADINYANVDGLTALHQACIDDNVDMVKFLVENGANINQPDNEGWIPLHAAASCGYLDIAEFLIGQGAHVGAVNSEGDTPLDIAEEEA
Regarding B3, the “concentration needed to modify the specificity of PP1, relative to M110-(M1-E309)” value in test [3] was determined as 10 fold.

Take GRRVSFADNFGFNLVSVK (also called peptide 63-80 of GM) [GM-(G63-K80) synthetic peptide]: in test [4], the binding result is on record as “binds”.

B4: GM-(G63-N75) synthetic peptide (peptide)
peptide: GRRVSFADNFGFN
notes: 13-residue peptide co-crystallised with PP1γ1; also called GM[63-75]; GM peptide
With B4, the binding result in test [4] is on record as “binds”.

B5: M110-(M1-S477), released from GST with thrombin (other)
chain: GSPGMKMADAKQKRNEQLKRWIGSETDLEPPVVKRQKTKVKFDDGAVFLAACSSGDTDEVLKLLHRGADINYANVDGLTALHQACIDDNVDMVKFLVENGANINQPDNEGWIPLHAAASCGYLDIAEFLIGQGAHVGAVNSEGDTPLDIAEEEAMEELLQNEVNRQGVDIEAARKEEERIMLRDARQWLNSGHISDVRHAKSGGTALHVAAAKGYTEVLKLLIQAGYDVNIKDYDGWTPLHAAAHWGKEEACRILVDNLCDMETVNKVGQTAFDVADEDILGYLEELQKKQNLLHSEKRDKKSPLIESTANMENNQPQKTFKNKETLIIEPEKNASRIESLEQEKADEEEEGKKDESSCSSEEDEEDDSESEAETDKTKPMASVTNAHTASTQAAPAAVTTPTLSSNQGTPTSPVKKFPTSTTKISPKEEERKDESPASWRLGLRKTGSYGALAEITASKEAQKEKDTAGVIRSASSPRLSSAANSISSLIHRD
As to B5, the binding result in test [1] is “no binding (tested: 30 nM with 1 µM myosin)”.

B6: GST-M110-(M377-K976), undegraded (other)
chain: MASVTNAHTASTQAAPAAVTTPTLSSNQGTPTSPVKKFPTSTTKISPKEEERKDESPASWRLGLRKTGSYGALAEITASKEAQKEKDTAGVIRSASSPRLSSSLDNKEKEKDNKGTRLAYVAPTIPRRLGSTSDIEEKENRESSNLRTSSSYTRRKWEDDLKKNSSINEGSTYHRSTSNRLWAEDSTEKEKDSAPTAATILVAPTVVSAAASSTTALTTTTAGTLSSTSEVRERRRSYLTPVRDEESESQRKARSRQARQSRRSTQGVTLTDLQEAEKTIGRSRSTRTREQENEEKDKEEKEKQDKEKQEEKKESEVSREDEYKQKYSRTYDETYARYRPVSTSSSSTPSSSSLSTLGSSLYASSQLNRPNSLVGITSAYSRGLTKDNEREGEKKEEEKEGEDKSQPKSIRERRRPREKRRSTGVSFWTQDSDENEQERQSDTEDGSSKRDTQTDSVSRYDSSSTSSSDRYDSLLGRSASYSYLEERKPYGSRLEKDDSTDFKKLYEQILAENEKLKAQLHDTNMELTDLKLQLEKATQRQERFADRSLLEMEKRERRALERRISEMEEELKMLPDLKADNQRLKDENGALIRVISKLSK
notes: also called C-terminal 600 residues of the M110 subunit from rat aorta; not shown: glutathione-S-transferase of vector pGEX-KG with the vector linker
As for B6, in test [5], the binding result is recorded as “binds”.

B7: GST-M110-(M1-S477) (other)
chain: MKMADAKQKRNEQLKRWIGSETDLEPPVVKRQKTKVKFDDGAVFLAACSSGDTDEVLKLLHRGADINYANVDGLTALHQACIDDNVDMVKFLVENGANINQPDNEGWIPLHAAASCGYLDIAEFLIGQGAHVGAVNSEGDTPLDIAEEEAMEELLQNEVNRQGVDIEAARKEEERIMLRDARQWLNSGHISDVRHAKSGGTALHVAAAKGYTEVLKLLIQAGYDVNIKDYDGWTPLHAAAHWGKEEACRILVDNLCDMETVNKVGQTAFDVADEDILGYLEELQKKQNLLHSEKRDKKSPLIESTANMENNQPQKTFKNKETLIIEPEKNASRIESLEQEKADEEEEGKKDESSCSSEEDEEDDSESEAETDKTKPMASVTNAHTASTQAAPAAVTTPTLSSNQGTPTSPVKKFPTSTTKISPKEEERKDESPASWRLGLRKTGSYGALAEITASKEAQKEKDTAGVIRSASSPRLSSAANSISSLIHRD
notes: not shown: glutathione-S-transferase of vector pGEX-KG with the vector linker (thrombin site)
As to B7, the binding result in test [6] is “no binding”.

For the molecule GRRVSFADNFGFNLVSVKEFDTWELPSVSTT [rabbit GM-(G63-T93) synthetic peptide], the “phosphorylase phosphatase activity of PP1M at 10 µM peptide” value in test [7] is roughly 7 fold. Moreover, the “phosphorylase phosphatase activity of PP1GL” value in test [2] stood at 6 fold.

B8: M110-(R714-I1004), C-terminal 291 residues of the chicken gizzard M110 subunit (other)
chain: RSTRTREQENEEKEKEEKEKQDKEKQEEKKESETKDDDYRQRYSRTVEEPYHRYRPTSTSTSTSSTSSLSTSTSSLSSSSQLNRPNSLIGITSAYSRSGTKESEREGGKKEEEKEEDKSQPKSIRERRRPREKRRSTGVSFWTQDSDENEQEHQSDSEEGTNKKETQSDSLSRYDTGSLSVSSGDRYDSAQGRSGSQSYLEDRKPYCSRLEKEDSTDFKKLYEQILAENEKLKAQLHDTNMELTDLKLQLEKTTQRQERFADRSLLEMEKRVSGKSQYLLGGKKSSRKKDI
notes: Expressed from pT7-7
For B8, in test [8], the binding result is on record as “binds”.

Consider MKMADAKQKRNEQLKRWIGSETDLEPPVVKRQKTK [M110[M1-K35] synthetic peptide], for which the “effectiveness at activating the myosin light chain phosphatase activity of PP1c relative to M110[1-38]” value in test [3] was no less than 10000 fold.

B9: GST-M110-(M1-E309), GST tag not cleaved (other)
chain: MKMADAKQKRNEQLKRWIGSETDLEPPVVKRQKTKVKFDDGAVFLAACSSGDTDEVLKLLHRGADINYANVDGLTALHQACIDDNVDMVKFLVENGANINQPDNEGWIPLHAAASCGYLDIAEFLIGQGAHVGAVNSEGDTPLDIAEEEAMEELLQNEVNRQGVDIEAARKEEERIMLRDARQWLNSGHISDVRHAKSGGTALHVAAAKGYTEVLKLLIQAGYDVNIKDYDGWTPLHAAAHWGKEEACRILVDNLCDMETVNKVGQTAFDVADEDILGYLEELQKKQNLLHSEKRDKKSPLIESTANMEA
notes: as for B7
Regarding B9, in test [6], the binding result was “no binding”.
